These results are taken from US20240317816A1, “PEPTIDES FOR IMMUNOTHERAPY” (Genevive, Inc., priority 2021, published 2024).

Where no end group is shown, it is not given here.

The target of assay [1] is T1, human chemokine (C-X-C motif) receptor 3 (Homo sapiens, UniProt P49682).
T1 construct: TEV protease site; Gal4-VP16 transcription factor ('Ga14-VP16' [sic]); Tango cell line; host or cells: Tango GPCR-bla U2OS
T1 sequence (P49682 1-368): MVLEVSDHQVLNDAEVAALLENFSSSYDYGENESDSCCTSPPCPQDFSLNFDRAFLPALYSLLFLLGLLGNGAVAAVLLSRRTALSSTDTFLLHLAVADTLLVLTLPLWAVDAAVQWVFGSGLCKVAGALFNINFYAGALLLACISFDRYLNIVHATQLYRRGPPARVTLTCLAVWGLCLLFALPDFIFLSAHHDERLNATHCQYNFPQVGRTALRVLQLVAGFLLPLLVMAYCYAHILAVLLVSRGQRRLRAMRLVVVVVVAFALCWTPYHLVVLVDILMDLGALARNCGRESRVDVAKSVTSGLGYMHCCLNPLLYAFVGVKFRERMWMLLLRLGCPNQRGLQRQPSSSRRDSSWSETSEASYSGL
The assay is described as follows: Positive allosteric modulator assay method 1 (PAM1), Tango CXCR3-bla U2OS. The note with it: retro-inverso peptide vs SG-3-00802. In kind it is cell-based. The text has this:
To assay positive allosteric modulator activity of SG-3-00802 (SEQ ID NO: 1) and SG-3-006683 in CXCR3 cell lines, the cell line Tango™ CXCR3-bla U2OS was used in a positive allosteric modulator assay with two different methods, as described below.
(§1) Tango™ CXCR3-bla U2OS cells contain the human chemokine (C-X-C motif) receptor 3 linked to a TEV protease site and a Ga14-VP16 transcription factor stably integrated into the Tango™ GPCR-bla U2OS cell line. This parental cell line stably expresses a beta-arrestin/TEV protease fusion protein and the beta-lactamase reporter gene under the control of a UAS response element. The Tango™ CXCR3-bla U2OS cells have been functionally validated for a response to I-TAC (CXCL11).
In positive allosteric modulator assay method 1 (PAM1), cells were diluted in Assay Media to an appropriate cell density and were added to the assay plate. Peptides were added at increasing concentrations (1 nM-20 mcM) to the cells in the assay plate and incubated for 30 minutes. Ligand (CXCL9, CXCL10, or CXCL11) was added at an EC20 to all wells containing test compound. The assay plate was incubated for 16 hours at 37° C. Substrate Loading Solution was added to the assay plate and incubated for 2 hours at room temperature, in the dark. The assay plate was read on a fluorescence plate reader and the data was analyzed. PAM activity was calculated as follows:
% of PAM=((Test compound−Unstimulated)/(Stimulated−Unstimulated))×100.

For assay [2], the system named is Unstimulated human T cells. In words: Transwell T cell migration towards CXCR3 ligands. It counts as cell-based. The note with it: CXCL11, 2.5 hours. Here is the method:
T cell migration towards CXCR3 ligands in the presence of SG-3-00802 and SG-3-06683 was tested using a Transwell migration assay. Suboptimal concentrations of each ligand (CXCR3 ligands CXCL9, CXCL10, and CXCL11) were added to the bottom of the transwell with increasing doses of SG-3-00802 or SG-3-006683. An optimal concentration of ligand was used as positive control, as indicated in the graphs.
Unstimulated human T cells were resuspended in AIM V serum-free media, then were added to the top chamber of a […] polycarbonate Transwell insert and incubated with the indicated concentrations of the ligands and peptides in the bottom chamber for 2.5 hours at 37° C. T cells that migrated to the bottom chamber were collected, stained with anti-CD3 antibody, and counted using Beckman Coulter Cytoflex flow cytometer. 123count eBeads counting beads were added to each of the wells for obtaining the absolute cell counts.

A further assay deals with T2, CXCR3 (Homo sapiens, UniProt P49682).
T2 sequence (P49682 1-368): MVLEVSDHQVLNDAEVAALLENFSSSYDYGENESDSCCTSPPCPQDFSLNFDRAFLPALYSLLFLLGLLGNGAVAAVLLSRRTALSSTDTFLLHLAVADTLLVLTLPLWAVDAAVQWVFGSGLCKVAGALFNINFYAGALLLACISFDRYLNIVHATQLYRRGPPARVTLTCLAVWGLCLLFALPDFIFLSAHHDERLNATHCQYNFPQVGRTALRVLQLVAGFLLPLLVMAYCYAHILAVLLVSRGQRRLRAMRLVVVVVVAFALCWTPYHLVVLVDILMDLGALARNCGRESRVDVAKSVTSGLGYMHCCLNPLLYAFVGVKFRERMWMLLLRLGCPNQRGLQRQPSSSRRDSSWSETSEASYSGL
The assay is described as follows: Positive allosteric modulator assay method 2 (PAM2), CXCR3-bla U2OS. It counts as cell-based. The note with it: varying CXCL11, fixed peptide concentration. Details: TEV protease site; Gal4-VP16 transcription factor ('Ga14-VP16' [sic]); Tango cell line; host or cells: Tango GPCR-bla U2OS.
From the text: as §1
Positive allosteric modulation was confirmed with an additional test method using a dose response setting for CXCL11. In positive allosteric modulator assay method 2 (PAM2), cells were diluted in Assay Media to an appropriate cell density, and were added to the assay plate. CXCR3-bla U2OS were stimulated with varying concentrations of CXCL11 ligand and a pre-determined fixed concentration of either SG-3-00802 or SG-3-06683 and incubated for 30 minutes. Ligand (CXCL9, CXCL10, or CXCL11) was added at increasing concentrations to wells containing the test compound.

For assay [3], the target named is T3, human chemokine (C-X-C motif) receptor 3 (human, UniProt P49682 1-368).
T3 construct: whole, on cells; The PathHunter gpcrMAX panel uses a different, undescribed construct; also called CXCR3
T3 sequence (looked up): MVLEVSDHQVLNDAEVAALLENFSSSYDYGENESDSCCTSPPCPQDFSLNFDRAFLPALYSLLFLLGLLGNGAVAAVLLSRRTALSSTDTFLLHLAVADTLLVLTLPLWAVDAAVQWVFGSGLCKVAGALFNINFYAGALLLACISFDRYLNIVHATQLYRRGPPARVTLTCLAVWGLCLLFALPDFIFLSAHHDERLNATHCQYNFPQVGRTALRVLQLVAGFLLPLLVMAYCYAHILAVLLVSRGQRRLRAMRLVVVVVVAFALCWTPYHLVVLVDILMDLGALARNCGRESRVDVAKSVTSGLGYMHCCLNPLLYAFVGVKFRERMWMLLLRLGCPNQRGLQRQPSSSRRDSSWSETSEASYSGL
In words: hit of DualSystems LRC-TriCEPS capture and SelectScreen reporter assay, confirmed in PathHunter beta-arrestin GPCR panel.

For the molecule “GQRQKHKPNECIVMVRGKRRIIKCKECMPKVSPRVKM (not fully specified; cysteine pairing not given here) [SG-3-06683]”, the “Activation of CXCR3” value in assay [1] is reported as “maintained”. Further, the “T cell migration to suboptimal level of ligand” value in assay [2] is “increased migration”. Besides, the “activity of CXCL11 on the CXCR3 receptor (PAM2)” value in the assay with CXCR3 is recorded as “enhanced the activity of the endogenous ligand CXCL11”.

B1: SG-3-00802 (peptide)
peptide: MKVRPSVKPMCEKCKIIRRKGRVMVICENPKHKQRQG
notes: also called PEP802
As for B1, the binding result in assay [3] is “binds”.
